Laboratory results as given in US20250002564A1 (HOSPITAL FOR SICK CHILDREN, published 2025).
Residue numbers refer to the chain shown, from its start. Several values for one entry are separate records, joined by “and”; a condition that tells them apart may be missing. Equal entries are not always repeated.

T1: mouse FcRn (mouse, UniProt Q61559 22-297; P01887 21-119)
T1 sequence (looked up) 1: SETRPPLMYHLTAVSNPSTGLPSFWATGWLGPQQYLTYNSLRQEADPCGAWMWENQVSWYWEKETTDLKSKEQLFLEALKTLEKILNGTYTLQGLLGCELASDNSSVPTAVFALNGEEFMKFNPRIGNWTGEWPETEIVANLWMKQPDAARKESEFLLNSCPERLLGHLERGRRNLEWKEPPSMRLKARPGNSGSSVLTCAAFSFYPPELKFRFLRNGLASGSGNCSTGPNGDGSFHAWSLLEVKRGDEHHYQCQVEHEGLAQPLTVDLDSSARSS
T1 sequence (looked up) 2: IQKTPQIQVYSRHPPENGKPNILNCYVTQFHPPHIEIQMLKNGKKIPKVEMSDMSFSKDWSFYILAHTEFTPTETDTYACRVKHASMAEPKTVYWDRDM

T2: mouse FcγRI (mouse, UniProt P26151 25-297)
T2 sequence (looked up): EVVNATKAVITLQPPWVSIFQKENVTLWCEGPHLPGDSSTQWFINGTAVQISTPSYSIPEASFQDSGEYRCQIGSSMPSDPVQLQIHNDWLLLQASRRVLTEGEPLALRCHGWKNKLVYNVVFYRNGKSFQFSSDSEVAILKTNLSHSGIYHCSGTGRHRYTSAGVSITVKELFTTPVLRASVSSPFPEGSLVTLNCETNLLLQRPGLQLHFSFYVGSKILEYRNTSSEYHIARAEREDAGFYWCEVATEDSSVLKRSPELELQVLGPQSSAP

B1: HD37 single chain IgG2a (mouse, anti-hCD19) (antibody)
chain: DILLTQTPASLAVSLGQRATISCKASQSVDYDGDSYLNWYQQIPGQPPKLLIYDASNLVSGIPPRFSGSGSGTDFTLNIHPVEKVDAATYHCQQSTEDPWTFGGGTKLEIKRADAAPTVSIFPPSSEQLTSGGASVVCFLNNFYPKDINVKWKIDGSERQNGVLNSWTDQDSKDSTYSMSSTLTLTKDEYERHNSYTCEATHKTSTSPIVKSFNRNECGGSSGSGSGSTGTSSSGTGTSAGTTGTSASTSGSGSGGGGGSGGGGSAGGTATAGASSGSGSSGSSSSGGTGTGQVQLQQSGAELVRPGSSVKISCKASGYAFSSYWMNWVKQRPGQGLEWIGQIWPGDGDTNYNGKFKGKATLTADESSSTAYMQLSSLASEDSAVYFCARRETTTVGRYYYAMDYWGQGTSVTVSSSQSFPNVFPLVSCESPLSDKNLVAMGCLARDFLPSTISFTWNYQNNTEVIQGIRTFPTLRTGGKYLATSQVLLSPKSILEGSDEYLVCKIHYGGKNRDLHVPIPSKPCPPCKCPAPNLLGGPSVFIFPPKIKDVLMISLSPIVTCVVVDVSEDDPDVQISWFVNNVEVHTAQTQTHREDYNSTLRVVSALPIQHQDWMSGKEFKCKVNNKDLPAPIERTISKPKGSVRAPQVYVLPPPEEEMTKKQVTLTCMVTDFMPEDIYVEWTNNGKTELNYKNTEPVLDSDGSYFMYSKLRVEKKNWVERNSYSCSVVHEGLHNHHTTKSFSRTPGK
notes: also called mIgG2a control; parental IgG
B2: mAb 120 (antibody, V domains shown)
VH: QVQLVQSGAEVKKPGASVKVSCKASGYTFTSYDINWVRQAPGQGLEWMGMIDPSGGSTSYAQKFQGRVTMTRDTSTSTVYMELSSLRSEDTAVYYCAKDFGGGTRYDYWYFDLWGRGTLVTVSS
VL: EIVMTQSPATLSVSPGERATLSCRASQSVSSRYLAWYQQKPGQAPRLLIYGASTRATGIPARFSGSGSGTEFTLTISSLQSEDFAVYYCQQYYTTPRTFGQGTRLEIKR
notes: also called IgG 120; Antibody 120
B3: mAb 254 (antibody, V domains shown)
VH: EVQLLESGGGLVQPGGSLRLSCAASGFTFSSSAMHWVRQAPGKGLEWVSAIGTGGDTYYADSVKGRFTISRDNSKNTLYLQMNSLRAEDTAVYYCAREGDGYNFYFDYWGQGTLVTVSS
VL: DIQMTQSPSSLSASVGDRVTITCRASQGISSYLAWYQQKPGKAPKLLIYDASSLQIGVPSRFSGSGSGTDFTLTISSLQPEDFATYYCLQSYSTPPWTFGQGTKVEIKR
notes: also called IgG 254; Antibody 254
B4: mAb 180 (antibody, V domains shown)
VH: QVQLVQSGAEVKKPGSSVKVSCKASGYTFTSYAMHWVRQAPGQGLEWMGRISPRSGGTKYAQRFQGRVTITADESTSTAYMELSSLRSEDTAVYYCAREAVAGTHPQAGDFDLWGRGTLVTVSS
VL: DIVMTQSPLSLPVTPGEPASISCRSSQSLLHSNGYNYLDWYLQKPGQSPQLLIYAASSLQSGVPDRFSGSGSGTDFTLKISRVEAEDVGVYYCQQYYSSPYTFGQGTKLEIKR
B5: mAb 236 (antibody, V domains shown)
VH: QVQLVQSGAEVKKPGASVKVSCKASGGTFTSYGINWVRQAPGQGLEWMGWMNPNSGNTGYAQKFQGRVTMTRDTSTSTVYMELSSLRSEDTAVYYCASRGIQLLPRGMDVWGQGTTVTVSS
VL: not shown
notes: also called IgG 236; Antibody 236
B6: mAb 46 (antibody, V domains shown)
VH: EVQLLESGGGLVQPGRSLRLSCAASGFTFSSYAMSWVRQAPGKGLEWVSTIYSGGSTYYADSVKGRFTISRDNSKNTLYLQMNSLRAEDTAVYYCARGDSRDAFDIWGQGTMVTVSS
VL: DIQMTQSPSSLSASVGDRVTITCRASQSISSWLAWYQQKPGKAPKLLIYDASNLETGVPSRFSGSGSGTDFTLTISSLQPEDFATYYCQQSYSTPFTFGPGTKVDIKR
notes: also called IgG 46; Antibody 46
B7: mAb 108 (antibody, V domains shown)
VH: QVQLVQSGAEVKKPGASVKVSCKASGYIFSRYAIHWVRQAPGQGLEWMGWMNPISGNTDYAPNFQGRVTMTRDTSTSTVYMELSSLRSEDTAVYYCAKDGSQLAYLVEYFQHWGQGTLVTVSS
VL: B6 VL with S28V, S30T, S31N, W32N, N53T, S93T, T94F, F96Y, P100Q, D105E
B8: mAb 324 (antibody, V domains shown)
VH: QVQLVQSGAEVKKPGASVKVSCKASGGTFNNYGISWVRQAPGQGLEWMGWMNPNSGNTGYAQKFQGRVTMTRDTSTSTVYMELSSLRSEDTAVYYCARVGDYGDYIVSPFDLWGRGTLVTVSS
VL: B6 VL with S30T, S31T, W32Y, A34N, F96P, P100Q, D105E
notes: also called IgG 324; Antibody 324
B9: mAb 64 (antibody, V domains shown)
VH: EVQLLESGGGLVQPGGSLRLSCAASGFPFSQHGMHWVRQAPGKGLEWVSAIDRSGSYIYYADSVKGRFTISRDNSKNTLYLQMNSLRAEDTAVYYCARDTYGGKVTYFDYWGQGTLVTVSS
VL: B6 VL with S28G, W32H, S91T, F96W, P100Q, D105E
notes: also called IgG 64; Antibody 64
B10: mAb 52 (antibody, V domains shown)
VH: QVQLVQSGAEVKKPGSSVKVSCKASGYTFTSYGISWVRQAPGQGLEWMGGIIPMFGTTNYAQKFQGRVTITADKSTSTAYMELSSLRSEDTAVYYCARDRGDTIDYWGQGTLVTVSS
VL: DIQMTQSPSSLSASVGDRVTITCRASQGISNNLNWYQQKPGKAPKLLIYAASSLESGVPSRFSGSGSGTDFTLTISSLQPEDFATYYCQQGNGFPLTFGPGTKVDIKR
notes: also called IgG 52; Antibody 52
B11: mAb 178 (antibody, V domains shown)
VH: QVQLVQSGAEVKKPGASVKVSCKASGYTFTDYHMHWVRQAPGQGLEWMGWINPNSGGTNYAQKFQGRVTMTRDTSTSTVYMELSSLRSEDTAVYYCARDISSWYEITKFDPWGQGTLVTVSS
VL: EIVMTQSPATLSVSPGERATLSCKASQSVSGTYLAWYQQKPGQAPRLLIYGASTRATGIPARFSGSGSGTEFTLTISSLQSEDFAVYYCLQTHSYPPTFGQGTKVEIKR
notes: also called IgG 178; Antibody 178
B12: 4A8 IgG (antibody, V domains shown)
VH: EVQLVESGAEVKKPGASVKVSCKVSGYTLTELSMHWVRQAPGKGLEWMGGFDPEDGETMYAQKFQGRVTMTEDTSTDTAYMELSSLRSEDTAVYYCATSTAVAGTPDLFDYYYGMDVWGQGTTVTVSS
VL: EIVMTQSPLSSPVTLGQPASISCRSSQSLVHSDGNTYLSWLQQRPGQPPRLLIYKISNRFSGVPDRFSGSGAGTDFTLKISRVEAEDVGVYYCTQATQFPYTFGQGTKVDIK
notes: also called IgG 4A8

Each binder was assayed against T1, mouse FcRn (assay: not given).

Binder | kon [M⁻¹ s⁻¹]
B1 | 116000

The binders below were run against T2, mouse FcγRI (assay: not given).

Binder | Kd [nM] | koff [s⁻¹] | kon [M⁻¹ s⁻¹]
B1 | 8.63 | 0.000451 | 52200

These binders were tested against T1, mouse FcRn (assay: pH 5.6).

Binder | Kd [nM] | koff [s⁻¹]
B1 | 1.06 | 0.000123

These binders were tested against T3, SARS-CoV-2 Spike on wild-type pseudotyped virus (PsV) (SARS-CoV-2, UniProt P0DTC2 14-1273) (assay: cell-based or functional assay).

Binder | IC50 SARS-CoV2 PsV (IgG) [µg/mL]
B2 | > 50
B3 | > 50
B4 | > 50
B5 | 0.057
B6 | 2.1
B7 | > 50
B8 | 0.78
B9 | > 50
B10 | 0.55
B11 | > 50

These binders were tested against Spike of authentic SARS-CoV-2/SB2-P4-PB virus (SARS-CoV-2, UniProt P0DTC2 14-1273) (assay: cell-based or functional assay).

Binder | IC50 SARS-CoV2/SB2-P4-PB (IgG) [µg/mL]
B5 | 5.5
B6 | 19
B8 | 21
B10 | 6.2

Target: T3, SARS-CoV-2 Spike on wild-type …
Test: cell-based or functional assay
Remark: another data set of the same source

Binder | Median IC50
B2 | > 50 µg/mL and > 333 nM
B3 | > 50 µg/mL and > 333 nM
B4 | > 50 µg/mL and > 333 nM
B5 | 0.057 µg/mL and 0.38 nM
B6 | 2.1 µg/mL and 14 nM
B7 | > 50 µg/mL and > 333 nM
B8 | 0.78 µg/mL and 5.2 nM
B9 | > 50 µg/mL and > 333 nM
B10 | 0.61 µg/mL and 4.1 nM
B11 | > 50 µg/mL and > 333 nM

Target: T3, SARS-CoV-2 Spike on wild-type …
Test: cell-based or functional assay
Remark: another data set of the same source

Binder | Median IC50
B12 | > 100 µg/mL and > 0.66 µM
